One block for each molecule: values may come before it.
Assays:
Format in all cases: biochemical
[1] = Lipase enzyme analysis, free fatty acid (Phenolphthalein) Test; conditions: substrate Fat / Vegetable oil; enzyme 1 mg/ml; 480 nM; n = 4
Method: Lipase enzyme from porcine and Rhizopus oryzae at 1 mg/ml concentration and a control of no enzymes were subjected the free fatty acid (Phenolphthalein) Test followed by spectrophotometric analysis at […].

[2] = Amylase enzyme analysis, Benedict's Test, substrate Maltose; conditions: enzyme 1 mg/ml, 10 minutes, pH 7, 38° C., 580 nm, n = 4
Method: (§1) Amylase enzyme from porcine and Bacillus amyloliquefaciens at 1 mg/ml concentration and a control of no enzymes were subjected to the Benedict's Test for 10 minutes at pH 7, 38° C., followed by spectrophotometric analysis at […].

[3] = Amylase enzyme analysis, Benedict's Test, substrate Dextrose; conditions: enzyme 1 mg/ml, 10 minutes, pH 7, 38° C., 580 nm, n = 4
Method: as §1

[4] = Amylase enzyme analysis, Benedict's Test, substrate Starch; conditions: enzyme 1 mg/ml, 10 minutes, pH 7, 38° C., 580 nm, n = 4
Method: as §1

absorbance, free fatty acid (Phenolphthalein) Test [1]: 3.17 +/− 0.11
B1: Porcine Lipase: Lipase enzyme from porcine (protein, UniProt P00591 1-450, looked up)
Pancreatic triacylglycerol …: SEVCFPRLGCFSDDAPWAGIVQRPLKILPWSPKDVDTRFLLYTNQNQNNYQELVADPSTITNSNFRMDRKTRFIIHGFIDKGEEDWLSNICKNLFKVESVNCICVDWKGGSRTGYTQASQNIRIVGAEVAYFVEVLKSSLGYSPSNVHVIGHSLGSHAAGEAGRRTNGTIERITGLDPAEPCFQGTPELVRLDPSDAKFVDVIHTDAAPIIPNLGFGMSQTVGHLDFFPNGGKQMPGCQKNILSQIVDIDGIWEGTRDFVACNHLRSYKYYADSILNPDGFAGFPCDSYNVFTANKCFPCPSEGCPQMGHYADRFPGKTNGVSQVFYLNTGDASNFARWRYKVSVTLSGKKVTGHILVSLFGNEGNSRQYEIYKGTLQPDNTHSDEFDSDVEVGDLQKVKFIWYNNNVINPTLPRVGASKITVERNDGKVYDFCSQETVREEVLLTLNPC

absorbance, Benedict's Test [2]: 3.108 +/− 0.15 | absorbance, Benedict's Test [3]: 3.078 +/− 0.13 | absorbance, Benedict's Test [4]: 2.087 +/− 0.11
B2: Porcine Amylase: Amylase enzyme from porcine (protein, UniProt P00690 16-511, looked up)
Pancreatic alpha-amylase: QYAPQTQSGRTSIVHLFEWRWVDIALECERYLGPKGFGGVQVSPPNENIVVTNPSRPWWERYQPVSYKLCTRSGNENEFRDMVTRCNNVGVRIYVDAVINHMCGSGAAAGTGTTCGSYCNPGNREFPAVPYSAWDFNDGKCKTASGGIESYNDPYQVRDCQLVGLLDLALEKDYVRSMIADYLNKLIDIGVAGFRIDASKHMWPGDIKAVLDKLHNLNTNWFPAGSRPFIFQEVIDLGGEAIQSSEYFGNGRVTEFKYGAKLGTVVRKWSGEKMSYLKNWGEGWGFMPSDRALVFVDNHDNQRGHGAGGASILTFWDARLYKVAVGFMLAHPYGFTRVMSSYRWARNFVNGQDVNDWIGPPNNNGVIKEVTINADTTCGNDWVCEHRWRQIRNMVWFRNVVDGQPFANWWANGSNQVAFGRGNRGFIVFNNDDWQLSSTLQTGLPGGTYCDVISGDKVGNSCTGIKVYVSSDGTAQFSISNSAEDPFIAIHAESKL

Source: patent publication US20230118104A1, “COMPOSITIONS AND METHODS FOR TREATING PANCREATIC ENZYME DEFICIENCIES IN MAMMALS” (Vets Plus, Inc., priority 2018, published 2023)
